Source: patent US12059448B2, “Pharmaceutical composition comprising thrombolytic peptide-tetrahydroisoquinoline conjugate” (Lumosa Therapeutics Co., LTD, priority 2019, dated 2024)

Test: Formulation stability in different pH solutions (Example 2), DC009 assay recovery by HPLC
Format: physicochemical
Description: DC009 were prepared according to the US Publication Application No. 2016-0083423. The final product was washed repetitively by DCM, THF and ethyl ether several times to increase the purity of the final product. The concentration and purity of DC009 in a solution are determined by HPLC with the following conditions. • Column: alkyl reversed-phase bounded phase column • Mobile Phase (MP): MP A: 0.1% by volume TFA in DI water/MP B: 0.1% by volume TFA in acetonitrile • Detection Wavelength: 214 & 280 nm • Column Temperature: 20-25° C. • Sample Temperature: 10-15° C. • Injection Volume: 10-20 μL • Gradient: MP A and MP B
In Examples 2-6, the stability of each formulation is shown as “assay recovery” or “relative purity level”. Samples at each time point was analyzed by HPLC as described above. For “Assay Recovery”, the % number is calculated by dividing the DC009 concentration at the time point by the DC009 concentration at T=0. For “Relative purity level”, the % number is calculated by (Peak area % of DC009 at Tn/Peak area % of DC009 at T0)*100%. […]
These formulations were stored at 40° C. and 60° C. to evaluate the assay recovery and total impurity. The appearance and stability at each storage condition were recorded at Table 2 and Table 3.

C[C@H](NC(=O)[C@@H]1CCCN1)C(=O)N[C@@H](CCCCN)C(=O)NCCCC[C@H](NC(=O)[C@@H]1Cc2cc(O)c(O)cc2C(C)(C)N1)C(=O)O [DC009, 3S-6,7-dihydroxy-1,1-dimethyl-1,2,3,4-tetrahydro-isoquinoline-3-acyl-Lys(Pro-Ala-Lys)]
stability of DC009 (acidic conditions): stable
stability of DC009 (pH between 4 and 5): very stable
